Assay results as given in US5945329A, “Customized proteases” (Carlsberg A/S, priority 1997, dated 1999).

Experiments:
[1] = target: T1, yeast carboxypeptidase Y (CPD-Y), wild type (SEQ ID NO:32) (Saccharomyces cerevisiae, UniProt P00729); test: Hydrolysis of FA-Phe-Val-OH; format: biochemical
T1 construct: purchased Carlbiotech, Copenhagen, Denmark
T1 sequence (P00729 112-532): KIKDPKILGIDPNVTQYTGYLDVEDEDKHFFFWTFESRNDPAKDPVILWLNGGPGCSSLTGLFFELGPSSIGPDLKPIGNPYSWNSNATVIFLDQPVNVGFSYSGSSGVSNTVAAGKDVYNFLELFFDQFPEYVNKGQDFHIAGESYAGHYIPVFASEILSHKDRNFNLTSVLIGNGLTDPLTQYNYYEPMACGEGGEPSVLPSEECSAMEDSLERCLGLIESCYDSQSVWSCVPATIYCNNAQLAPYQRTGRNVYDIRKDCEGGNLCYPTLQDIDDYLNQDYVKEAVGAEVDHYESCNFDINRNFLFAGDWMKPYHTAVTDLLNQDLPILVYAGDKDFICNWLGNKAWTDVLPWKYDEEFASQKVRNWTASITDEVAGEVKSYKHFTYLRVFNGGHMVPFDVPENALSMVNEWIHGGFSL

[2] = target: T1, yeast carboxypeptidase Y (CPD-Y), wild type (SEQ ID NO:32); test: Aminolysis of ester/peptide substrates; KN(app) of nucleophile; format: biochemical; details: Table VI; substance of the line is the substrate (leaving group varied), pH 7.5
Protocol: (§1) Aminolysis reactions were carried out in the following way. The nucleophile was dissolved in 50 mM Hepes, 5 mM EDTA and pH was adjusted to 7.5. Five (5) μl of substrate (8 mM FA-Ala-OBzl in methanol) was added to 190 μl nucleophile solution followed by 5 μl enzyme, resulting in a substrate concentration of 0.2 mM. For reactions carried out at pH 9.5, Hepes was replaced with Ches. During the reaction, 20 μl aliquots were removed from the reaction mixture and added to 50 μl 1% trifluoroacetic acid to quench the reaction. The reactant composition was determined by HPLC using a Waters HPLC equipped with a C-18 Waters Novapac 4μ reverse phase column and various gradients of acetonitrile in 0.1% trifluoroacetic acid. The separation was monitored at 302 nm allowing the direct quantification of the products from the integrated peak areas. The composition of the reaction mixture was determined at least twice during the reaction, the first time when 20-50% (preferably 35%) of the ester substrate had been consumed in the reaction and the second time when 50-90% (preferably 80%) of the substrate had been consumed. The products were collected and identified by amino acid analysis after acid hydrolysis using a Pharmacia Alpha Plus analyzer.
(§2) Further identification was obtained by co-chromatography of authentic standard compounds. The fraction of aminolysis (fa) was expressed as the ratio between the formed aminolysis product and the sum of all products being formed, i.e., unconsumed substrate was disregarded in the calculations. The KN(app), representing the nucleophile concentration at which fa is half the maximum value (a measure for the dissociation constant of the nucleophile), and famax (the highest possible fa obtained at saturation of the enzyme with nucleophile) were determined by fitting the values of fa obtained at a minimum of seven concentrations of nucleophile to a saturation. The value of fa obtained at the highest possible nucleophile concentration is designated fasat.
(§3) Aminolysis reactions were carried out in the following way. The nucleophile was dissolved in 50 mM HEPES, 5 mM EDTA and pH was adjusted to 7.5, 5 μl substrate (8 mM FA-Ala-OBzl or FA-Ala-Xaa-OH in methanol) was added to 190 μl nucleophile solution followed by 5 μl enzyme diluted in buffer to the appropriate concentration, resulting in a substrate concentration of 0.2 mM. During the reaction, 20 μl aliquots were removed from the reaction mixture and added to 50 μl 1% trifluoroacetic acid to quench the reaction. The reactant composition was determined by HPLC using a Waters HPLC equipped with a C-18 Waters Novapac 4μ reverse phase column and various gradients of acetonitrile in 0.1% trifluoroacetic acid. The separation was monitored at 302 nm allowing the direct quantification of the products from the integrated peak areas. The products were collected and identified by amino acid analysis after acid hydrolysis (Pharmacia Alpha Plus analyzer) and by co-chromatography of authentic standards. The fraction of aminolysis (fa) was expressed as the ratio between the formed aminolysis product and the sum of all products being formed, i.e. unconsumed substrate was disregarded in the calculations. The KN,app (a measure for the dissociation constant of the nucleophile) and famax (the highest possible fa obtained at saturation with nucleophile were determined by fitting the obtained fa values to the equation fa=famax /(1+KN,app /N).

[3] = target: T2, carboxypeptidase Y (CPD-Y) variant E65A (Glu65 replaced by alanine) (Saccharomyces cerevisiae, UniProt P00729, E176A); test: Aminolysis; KN(app) of nucleophile; format: biochemical, yeast; details: Table VI; substance of the line is the substrate (leaving group varied), pH 7.5
T2 construct: made in house; host or cells: S. cerevisiae W2579 (secreted)
T2 sequence (P00729 112-532 E176A): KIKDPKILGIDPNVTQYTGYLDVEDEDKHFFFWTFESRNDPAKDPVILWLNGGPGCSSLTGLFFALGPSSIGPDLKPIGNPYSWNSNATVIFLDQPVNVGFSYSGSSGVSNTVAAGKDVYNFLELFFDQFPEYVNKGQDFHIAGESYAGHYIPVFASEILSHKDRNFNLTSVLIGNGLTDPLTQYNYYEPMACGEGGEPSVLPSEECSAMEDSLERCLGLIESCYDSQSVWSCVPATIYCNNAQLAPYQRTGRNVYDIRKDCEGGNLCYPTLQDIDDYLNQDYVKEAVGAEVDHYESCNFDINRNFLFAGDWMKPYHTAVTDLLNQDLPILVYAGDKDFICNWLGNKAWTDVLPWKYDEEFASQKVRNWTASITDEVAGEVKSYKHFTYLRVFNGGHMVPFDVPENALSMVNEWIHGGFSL
Protocol: as §1, §2, §3

[4] = target: T3, carboxypeptidase Y (CPD-Y) variant E145A (Glu145 replaced by alanine) (Saccharomyces cerevisiae, UniProt P00729, E256A); test: Aminolysis; KN(app) of nucleophile; format: biochemical, yeast; details: Table VI; substance of the line is the substrate (leaving group varied), pH 7.5
T3 construct: made in house; host or cells: S. cerevisiae W2579 (secreted)
T3 sequence (P00729 112-532 E256A): as the sequence (P00729 112-532 E176A) above, with A65E, E145A counted along it
Protocol: as §1, §2, §3

[5] = target: T4, carboxypeptidase Y (CPD-Y) variant N51S (Asn51 replaced with serine) (Saccharomyces cerevisiae, UniProt P00729, N162S); test: Aminolysis; KN(app) of nucleophile; format: biochemical, yeast; details: Table VI; substance of the line is the substrate (leaving group varied), pH 7.5
T4 construct: made in house; host or cells: S. cerevisiae W2579 (secreted)
T4 sequence (P00729 112-532 N162S): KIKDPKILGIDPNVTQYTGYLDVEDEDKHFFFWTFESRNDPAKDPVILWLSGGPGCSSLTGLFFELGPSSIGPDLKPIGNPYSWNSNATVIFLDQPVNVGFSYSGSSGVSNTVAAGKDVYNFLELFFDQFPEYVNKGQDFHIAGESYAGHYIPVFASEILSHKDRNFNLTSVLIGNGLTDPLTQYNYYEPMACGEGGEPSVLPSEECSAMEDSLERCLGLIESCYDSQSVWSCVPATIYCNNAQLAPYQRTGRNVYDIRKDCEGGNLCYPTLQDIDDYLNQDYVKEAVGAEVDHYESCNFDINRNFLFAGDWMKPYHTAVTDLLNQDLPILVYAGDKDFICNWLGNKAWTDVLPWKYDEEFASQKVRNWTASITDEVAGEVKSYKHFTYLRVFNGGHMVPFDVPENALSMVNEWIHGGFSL
Protocol: as §1, §2, §3

[6] = target: T5, carboxypeptidase Y (CPD-Y) variant N51Q (Asn51 replaced with glutamine) (Saccharomyces cerevisiae, UniProt P00729, N162Q); test: Aminolysis; KN(app) of nucleophile; format: biochemical, yeast; details: Table VI; substance of the line is the substrate (leaving group varied), pH 7.5
T5 construct: made in house; host or cells: S. cerevisiae W2579 (secreted)
T5 sequence (P00729 112-532 N162Q): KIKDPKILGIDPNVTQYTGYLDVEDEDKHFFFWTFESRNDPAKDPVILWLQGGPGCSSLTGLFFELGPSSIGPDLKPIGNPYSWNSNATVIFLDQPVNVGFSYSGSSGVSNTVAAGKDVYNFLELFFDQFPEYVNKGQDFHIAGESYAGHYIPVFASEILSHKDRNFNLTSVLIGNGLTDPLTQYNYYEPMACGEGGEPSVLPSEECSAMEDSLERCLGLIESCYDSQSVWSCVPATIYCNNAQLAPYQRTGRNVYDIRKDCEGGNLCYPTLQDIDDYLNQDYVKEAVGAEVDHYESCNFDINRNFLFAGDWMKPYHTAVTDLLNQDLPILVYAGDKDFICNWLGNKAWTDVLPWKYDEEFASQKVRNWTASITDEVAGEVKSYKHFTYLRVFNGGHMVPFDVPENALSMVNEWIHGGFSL
Protocol: as §1, §2, §3

[7] = target: FA-Ala-Gln-OH
[8] = target: FA-Ala-Lys-OH
[9] = target: FA-Ala-Arg-OH
[10] = target: CBZ-Ser-Leu-OH
[11] = target: CBZ-Lys-Leu-OH
[12] = target: CBZ-Phe-Leu-OH
[13] = target: CBZ-Glu-Leu-OH
[14] = target: CBZ-Ala-Leu-OH
[15] = target: FA-Phe-Val-OH
[16] = target: FA-Ala-Phe-OH
[17] = target: FA-Ala-Ala-OH
[18] = target: FA-Ala-Leu-OH
[19] = target: FA-Ala-Val-OH
[20] = target: CBZ-Trp-Leu-OH
[21] = target: CBZ-Pro-Leu-OH
[22] = target: CBZ-Gly-Leu-OH
[23] = target: CBZ-His-Leu-OH
[24] = substrate: CC(C)C[C@H](NC(=O)[C@H](CO)NC(=O)OCc1ccccc1)C(=O)O; test: Hydrolysis of CBZ-X-Leu-OH substrates; format: biochemical, yeast; details: other: Table X, hydrolysis at 25° C., 10 mM sodium phosphate pH 6.5
Protocol: (§4) Over-expression of selected mutant enzymes was performed according to Nielsen et al. (1990) cited supra. The mutant BamHI-BamHI PRC1 fragments of pYSP32 were inserted into the GAL expression vector pRA21 and introduced into yeast strain K2579LLR. The plasmid pRA21 is derived from p72UG (Nielsen et al. (1990) cited supra) by replacing the 918 bp BglII-SalI fragment with the 638 bp BglII-PvuII fragment of pWI3, thereby deleting the BamHI site downstream of the PRC1 gene. Mutant forms of CPD-Y were purified from culture supernatants by affinity chromatography as described in Example 1. Kinetic parameters were determined by measuring rates of hydrolysis at 25° C. of CBZ-X-Leu-OH substrates spectrophotometrically at 224 nm in 10 mM sodium phosphate buffer pH 6.5. The concentrations of substrates ranged from 0.01 to 0.5 mM. Accurate measurements were not possible with substrate concentrations exceeding 0.5 mM due to the high absorption of the substrate.

[25] = substrate: CC(C)C[C@H](NC(=O)[C@H](C)NC(=O)OCc1ccccc1)C(=O)O; test: Hydrolysis of CBZ-X-Leu-OH substrates; format: biochemical, yeast; details: other: Table X, hydrolysis at 25° C., 10 mM sodium phosphate pH 6.5
Protocol: as §4

[26] = substrate: CC(C)C[C@H](NC(=O)[C@H](Cc1ccccc1)NC(=O)OCc1ccccc1)C(=O)O; test: Hydrolysis of CBZ-X-Leu-OH substrates; format: biochemical, yeast; details: other: Table X, hydrolysis at 25° C., 10 mM sodium phosphate pH 6.5
Protocol: as §4

[27] = substrate: CC(C)C[C@H](NC(=O)[C@H](CCCCN)NC(=O)OCc1ccccc1)C(=O)O; test: Hydrolysis of CBZ-X-Leu-OH substrates; format: biochemical, yeast; details: other: Table X and text, hydrolysis at 25° C., 10 mM sodium phosphate pH 6.5
Protocol: as §4

[28] = substrate: CC(C)C[C@H](NC(=O)[C@H](CCC(=O)O)NC(=O)OCc1ccccc1)C(=O)O; test: Hydrolysis of CBZ-X-Leu-OH substrates; format: biochemical, yeast; details: other: Table X and text, hydrolysis at 25° C., 10 mM sodium phosphate pH 6.5
Protocol: as §4

[29] = substrate: CC(C)[C@H](NC(=O)[C@H](Cc1ccccc1)NC(=O)C=Cc1ccco1)C(=O)O; test: purified protein, by the assay type; details: other: hydrolysis of FA-Phe-Val-OH

CC(C)[C@H](NC(=O)[C@H](Cc1ccccc1)NC(=O)C=Cc1ccco1)C(=O)O [FA-Phe-Val-OH]
kcat [1]: 108.3 s⁻¹
kcat /KM [1]: 2.33333e+06 M⁻¹ s⁻¹

C[C@H](NC(=O)C=Cc1ccco1)C(=O)OCc1ccccc1 [FA--Ala--OBzl, FA-Ala-OBzl]
Kn,app (H-Val-NH2 as nucleophile) [2]: 1.7 ± 0.1 mM
Kn,app (H-Val-NH2 as nucleophile) [3]: 4.2 ± 0.01 mM
Kn,app (H-Val-NH2 as nucleophile) [4]: 3.4 ± 0.4 mM
Kn,app (H-Val-NH2 as nucleophile) [5]: 1.6 ± 0.1 mM
Kn,app (H-Val-NH2 as nucleophile) [6]: 3.1 ± 0.4 mM

carboxypeptidase Y (enzyme)
famax of transpeptidation (nucleophile H-Gly-NH2) [7]: 0.93
famax of transpeptidation (nucleophile H-Gly-NH2) [8]: 0.99
famax of transpeptidation (nucleophile H-Val-NH2) [9]: 1
kcat/Km of hydrolysis [10]: 200000 M⁻¹ s⁻¹
kcat/Km of hydrolysis [11]: 400 M⁻¹ s⁻¹
kcat/Km of hydrolysis [12]: 6.33e+06 M⁻¹ s⁻¹
kcat/Km of hydrolysis [13]: 7330 M⁻¹ s⁻¹
kcat/Km of hydrolysis [14]: 600000 M⁻¹ s⁻¹
kcat/KM of hydrolysis [15]: 2.33e+06 M⁻¹ s⁻¹
famax of transpeptidation (nucleophile H-Val-NH2) [16]: 0.06
famax of transpeptidation (nucleophile H-Val-NH2) [17]: 0.94
famax of transpeptidation (nucleophile H-Val-NH2) [18]: 0.16
famax of transpeptidation (nucleophile H-Val-NH2) [19]: 0.22
estimated CPD-Y activity relative to wild type transformants (fold of wild type) [20]: 1
estimated CPD-Y activity relative to wild type transformants (fold of wild type) [21]: 1
estimated CPD-Y activity relative to wild type transformants (fold of wild type) [22]: 1
estimated CPD-Y activity relative to wild type transformants (fold of wild type) [23]: 1

B1: yeast carboxypeptidase Y (CPD-Y), wild type (SEQ ID NO:32) (Saccharomyces cerevisiae S288C) (protein)
chain: KIKDPKILGIDPNVTQYTGYLDVEDEDKHFFFWTFESRNDPAKDPVILWLNGGPGCSSLTGLFFELGPSSIGPDLKPIGNPYSWNSNATVIFLDQPVNVGFSYSGSSGVSNTVAAGKDVYNFLELFFDQFPEYVNKGQDFHIAGESYAGHYIPVFASEILSHKDRNFNLTSVLIGNGLTDPLTQYNYYEPMACGEGGEPSVLPSEECSAMEDSLERCLGLIESCYDSQSVWSCVPATIYCNNAQLAPYQRTGRNVYDIRKDCEGGNLCYPTLQDIDDYLNQDYVKEAVGAEVDHYESCNFDINRNFLFAGDWMKPYHTAVTDLLNQDLPILVYAGDKDFICNWLGNKAWTDVLPWKYDEEFASQKVRNWTASITDEVAGEVKSYKHFTYLRVFNGGHMVPFDVPENALSMVNEWIHGGFSL
notes: purchased Carlbiotech, Copenhagen, Denmark
Km [24]: 70 µM
kcat [24]: 800 mM/min/mM
kcat/Km [24]: 12,000 min^-1 mM^-1
Km [25]: 700 µM
kcat [25]: 25000 mM/min/mM
kcat/Km [25]: 36,000 min^-1 mM^-1
Km [26]: 36 µM
kcat [26]: 13600 mM/min/mM
kcat/Km [26]: 380,000 min^-1 mM^-1
kcat/Km [27]: 400 M⁻¹ s⁻¹
kcat/Km [28]: 7330 M⁻¹ s⁻¹
Km [29]: 47 µM
